Laboratory results: publication PMC2175300

Tests used:
Assay in all cases: fluorescence anisotropy
FOXO3a-DBD S253D = FOXO3a-DBD S253D (Homo sapiens, UniProt O43524 158-253, S253D)
FOXO3a-DBD K245A = FOXO3a-DBD K245A (Homo sapiens, UniProt O43524 158-253, K245A)
FOXO3a-DBD WT = FOXO3a-DBD WT (Homo sapiens, UniProt O43524 158-253)
FOXO3a-DBD RRR/AAA = FOXO3a-DBD RRR/AAA (Homo sapiens, UniProt O43524 158-253, R248A;R249A;R250A)
FOXO3a-DBD K242A = FOXO3a-DBD K242A (Homo sapiens, UniProt O43524 158-253, K242A)
FOXO3a-DBD K242A, sequence (O43524 158-253 K242A): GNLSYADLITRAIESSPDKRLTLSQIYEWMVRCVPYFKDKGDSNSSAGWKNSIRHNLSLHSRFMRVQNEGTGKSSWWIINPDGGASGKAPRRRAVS

FOXO3a-DBD 158-240 = FOXO3a-DBD 158-240 (Homo sapiens, UniProt O43524 158-240)
FOXO3a-DBD 158-240, sequence (O43524 158-240): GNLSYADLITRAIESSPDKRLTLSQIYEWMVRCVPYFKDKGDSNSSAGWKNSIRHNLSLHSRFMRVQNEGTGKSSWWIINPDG

FOXO3a-DBD RRR/AAA, sequence (O43524 158-253 R248A/R249A/R250A): as the sequence (O43524 158-253 K242A) above, with A85K, R91A, R92A, R93A counted along it
FOXO3a-DBD K245A, sequence (O43524 158-253 K245A): as the sequence (O43524 158-253 K242A) above, with A85K, K88A counted along it
FOXO3a-DBD S253D, sequence (O43524 158-253 S253D): as the sequence (O43524 158-253 K242A) above, with A85K, S96D counted along it
FOXO3a-DBD WT, sequence (O43524 158-253): as the sequence (O43524 158-253 K242A) above, with A85K counted along it

B1: 26-bp FOXO consensus FA duplex (dsDNA)
DNA 1: CGCATCCTATGTAAACAACTCGAGTC
DNA 2: GACTCGAGTTGTTTACATAGGATGCG
B1 was tested, and the Kd (FOXO3a-DBD S253D) was 549 ± 55 nM, the Kd (FOXO3a-DBD K245A) was 511 ± 63 nM and the Kd (FOXO3a-DBD WT) was 295 ± 26 nM. For the same binder, the Kd (FOXO3a-DBD RRR/AAA) was 1180 ± 168 nM, the Kd (FOXO3a-DBD K242A) was 399 ± 25 nM and the Kd (FOXO3a-DBD 158-240) was 1490 ± 197 nM.
